Patent US20210380994A1, “LACTOCOCCUS LACTIS EXPRESSION SYSTEM FOR DELIVERING PROTEINS EFFICACIOUS FOR THE TREATMENT OF EPITHELIAL BARRIER FUNCTION DISORDERS” (Second Genome, Inc., priority 2018, published 2021)

System: mice treated with DSS
Assay: DSS model of colitis with SG-11V5 protein and SG-11V5-expressing L. lactis (Example 22)
Format: in vivo
Experimental: Specifically, the mice in this Example 22 were treated with DSS, a chemical known to induce intestinal epithelial damage and thereby reduce intestinal barrier integrity and function. These DSS mice were then administered an L. lactis strain expressing SG-11V5 as described above, or a positive or negative control treatment.
In this study, 3 independent groups of mice (10 mice per group) were used to test the 3 different L. lactis strains: Group 1: L. lactis harboring parent pNZ8124 vector, Group 2: L. lactis harboring inducible SG-11V5 vector (PnisA:otsBA::PnisA:SPusp45:SG-11V5), and Group 3: L. lactis harboring constitutive SG-11V5 vector (PnisA:otsBA::Pusp45:SPusp45:SG-11V5). Each of the strains in Groups 1-3 had been grown until the cultures reached an OD600 of about 0.5, induced with nisin for 2 hours, concentrated to about 10^11 cells/mL in PBS with glycerol, and stored at −80° C. Cells were analyzed by Western blot to confirm protein expression. An additional 4 groups of mice (n=10 per group) were included as controls: Group 4: untreated; Group 5: treated p.o. with vehicle only; Group 6: intraperitoneal (i.p.) administration of Gly2-GLP2 (50 nmoles/kg); and Group 7: i.p. administration of SG-11V5 protein (160 nmoles/kg (4.0 mg/kg).
I.p. administration of Gly2-GLP2 and SG-11V5 was done twice per day, with i.p. administration to the right abdomen in the morning and to the left abdomen in the evening for 6 consecutive days (Day 0-Day 5) and then to the right abdomen on Day 6 prior to euthanasia and tissue recovery. Gly2-GLP2 (CPC Scientific Peptide Company) was prepared by dissolving in PBS(Corning 21-040-CV) with 5 mM NaOH to a concentration of 5 mg/mL Aliquots were stored at −80C prior to use.
Following a 7-day acclimation period, treatments wore initiated in the morning (AM) of Day 0 with i.p. administration of Gly2-GLP2 or purified SG-11V5 protein as a positive control, oral gavage of strain vehicle only (phosphate buffered saline (PBS; Corning 21-040-CV)), or with oral gavage administration of the appropriate L. lactis expression strain.
Fresh drinking water treated with 2.5% DSS was prepared and provided to all the mice on Days 0, 2, and 4 about 6 hours after AM dosing. […] Also, treatments were continued with the L. lactis strains described above once a day (q.d) in the morning with p.o. administration at 10^10 CFU of the strains comprising i) pNZ8124 vector, ii) inducible SG-11V5 vector, or iii) constitutive SG-11V5 vector.
On Day 6, only AM dosing was performed for intraperitoneal (i.p.) injection of protein and oral gavage (p.o) administration of L. lactis strains expressing SG-11V5 protein. Mice were fasted for 4 hours and then orally gavaged with 600 mg/kg 4KDa dextran labeled with fluorescin isothiocyanate (FITC) [4KDa-FITC]. About 50 minutes after the 4KDa-FITC gavage, mice were anesthetic with ketamine (ket)/xylazine (xyl) drug. Mice were injected with 10 ml/kg i.p of 10 mg/ml ketamine and 1 mg/ml xylazine (100 ul per 10 g body weight). One hour after administering 4KDa-FITC and about 10 minutes after ketamine/xylazine anesthesia, mice were euthanized, and blood and tissues were collected to assess barrier function and DSS model readouts. […]
Upon completion of the DSS models above, LBP levels were measured as an inflammation centric readout of barrier function following the protocol detailed above in Examples 7 and 13. […] LBP levels were measured in serum using a commercially available ELISA Kit (Enzo Life Sciences). […]

[1] = SG-11V5 protein 160 nmoles/kg i.p. b.i.d.

B1: SG-11V5: variant of SEQ ID NO:7 with N53S, N83S, C147V, C151S (protein)
chain: MLEGEESVVYVGKKGVIASLDVETLDQSYYDETELKSYVDAEVEDYTAEHGKSAVKVESLKVEDGVAKLKMKYKTPEDYTAFSGIELYQGKVVASLAAGYVYDGEFARVEEGKVVGAATKQDIYSEDDLKVAIIRANTDVKVDGEIVYVSSQNVKLTGKDSVSIRDGYYLETGSVTASVDVTGQESVGTEQLSGTEQMEMTGEPVNADDTEQTEAAAGDGSFETDVYTFIVYK
modifications: Artificial variant of SG-11 (N53S, N83S, C147V, C151S)
**Q.** With B1 as the molecule, how does the body weight (SG-11V5 160 nmoles/kg i.p. b.i.d., day 6) read?
**A.** significant improvement in body weight

**Q.** What about the colon length [1] of the same molecule?
**A.** significant increase in the colon length

**Q.** What about the colon weight-to-length ratio [1] of the same molecule?
**A.** significant decrease in the colon weight-to-length ratio

**Q.** And the “gross pathology (clinical score 0-5)” value (SG-11V5 protein 160 nmoles/kg i.p. b.i.d., p<0.0001)?
**A.** significant improvement in gross pathology

**Q.** What about the “4KDa-FITC dextran translocation across the epithelial barrier” value (SG-11V5 protein 160 nmoles/kg i.p. b.i.d., vs DSS + vehicle) of the same molecule?
**A.** non-significant increase
